“Also recorded” adds a separate entry of the source.
B1: ARTS: septin-like mitochondrial protein; human ARTS of 274 amino acid residues, GenBank Accession No. AF176379 (protein, listed as Homo sapiens)
chain: MIKRFLEDTTDDGELSKFVKDFSGNASCHPPEAKTWASRPQVPEPRPQAPDLYDDDLEFRPPSRPQSSDNQQYFCAPAPLSPSARPRSPWGKLDPYDSSEDDKEYVGFATLPNQVHRKSVKKGFDFTLMVAGESGLGKSTLVNSLFLTDLYRDRKLLGAEERIMQTVEITKHAVDIEEKGVRLRLTIVDTPGFGDAVNNTECWKPVAEYIDQQFEQYFRDESGLNRKNIQDNRVHCCLYFISPFGHGYGPSLRLLAPPGAVKGTGQEHQGQGCH

Columns and labels:
BT-549 and HeLa cells = test: Cell fractionation: release of Bcl-2 and ARTS to the cytosol after STS; format: cell-based, human; conditions: 0.6 μM STS
Protocol: Cells were re-suspended in homogenization buffer [20 mM HEPES-KOH, pH 7.5, 10 mM KCl, 1.5 mM MgCl2, 1 mM sodium EDTA, 1 mM sodium EGTA and 1 mM DTT in the presence of 250 mM sucrose and protease inhibitors (Mini-Complete™, Roche)]. Cell homogenization was performed using a 26 G needle (Sterican® 0.45′25 mm, 26 G′1″, Gr.18, B. Braun #46507683) and 1 mL syringe (1 mL HSW NORMJECT®, Henke-Sass, Wolf GmbH #4010.200V0) using 20 strokes. Homogenates were centrifuged at 500×g for 5 min at 4° C., and the supernatant was centrifuged at 10000×g for 20 min to obtain mitochondria. The supernatant was considered as a cytosolic fraction.
Briefly, cells were harvested and centrifuged at 300×g for 10 min, washed in TBS 2.5 mM pH 7.5, and re-pelletted. Cells were permeabilized for 5 min on ice with cytosolic extraction buffer (250 mM sucrose, 70 mM KCl, 137 mM NaCl, 4.3 mM Na2HPO4, 1.4 mM KH2PO4 pH 7.2, 1× complete protease inhibitor cocktail, Roche) containing freshly prepared digitonin (200 μg/ml, D-5628, Sigma). Cytosolic fraction was isolated by collecting the supernatant after centrifugation at 1000×g for 5 min at 4° C. Cytosolic fraction was separated on a 12% acrylamide gel and transferred to nitrocellulose membranes.
It has been recently shown by some of the inventors that similarly to Bcl-2, ARTS resides at the MOM of living cells (Edison et al., 2012b). […]

HeLa cells = test: Immunofluorescence localization of Bcl-2 (mitochondria vs cytosol) after STS; format: cell-based, human
Protocol: To further determine the cellular localization of Bcl-2 under apoptotic and non-apoptotic conditions, Immunofluorescence assay was conducted.
Cells in which Bcl-2 is detected at mitochondria (co-localize with MitoTracker), or at the cytosol (showing diffused pattern of staining) were counted.

Bcl-2 [1] = test: In vivo ubiquitination assay of Bcl-2 in HeLa cells; format: cell-based, human; conditions: HeLa cells transfected with Bcl-2, XIAP and ubiquitin, 20 μM MG132 6 h
Protocol: (§1) Cells were transiently transfected with different constructs as detailed herein and treated with MG132 (20 μM, Alexis) for 6 hours. The medium was aspirated and the cells were washed with 1×PBS at room temperature. The cells were scraped at room temperature in 100 μl of denaturation buffer (1% SDS, 140 mM NaCl, 50 mM Tris-HCl pH 7.4) containing protease inhibitor cocktail (Complete, Roche) and 10 mM NEM to preserve ubiquitine chains. The solution was transferred to 2 ml eppendorf tube. The cells were homogenized by passing through a 25-gauge needle (20 times), and boiled for 10 min after vigorous vortexing. An amount of 400 μl of renaturation buffer (2% TritonX-100, 140 mM NaCl, 50 mM Tris-HCl pH 7.4) containing protease inhibitor cocktail (Complete, Roche) and 10 mM NEM was added to the lysate. After 15 min of centrifugation (10,000 g, 4°), the supernatant was transferred into a clean eppendorf tube. The protein concentration was determined using BCA Protein Assay Kit (Pierce). Western blot analyses were performed following immunoprecipitation with particular antibody.
More specifically, HeLa or ARTS KD HeLa cells were transiently transfected with Bcl-2, XIAP and ubiquitin and treated with 20 μM MG132 for 6 h. […] The cells were harvested and subjected to immunoprecipitation (IP) using anti-Bcl-2 antibodies, followed by immune-blotting (IB) with anti-Bcl-2 antibodies.

Bcl-2 [2] = system: Bcl-2
Bcl-2 [3] = test: In vivo ubiquitination assay of Bcl-2 in MEFs; format: cell-based, mouse; conditions: WT MEFs, transfected, MG132 for 6 h
Protocol: as §1
The possible in vivo ubiquitination of Bcl-2 occurring upon apoptotic induction was next tested in immortalized WT MEFs transiently transfected with Bcl-2, XIAP and ubiquitin and treated with 20 μM MG132 for 6 h. […]

XIAP and Bcl-2 = target: T1, XIAP and Bcl-2 (Homo sapiens, UniProt P10415+P98170); test: Pull-down of myc-XIAP in COS-7 cells co-transfected with ARTS, flag-Bcl-2 and myc-XIAP; format: binding
T1 construct: expressed in transfected cells; host or cells: COS-7
Protocol: (§2) COS-7 cells were co-transfected with different constructs as detailed herein. The cells were lysed in RIPA buffer (150 mM NaCl, 50 mM Tris-HCl (pH 8), 1% NP-40, 0.5% deoxycholate acid containing protease inhibitors (mini Complete, Roche)). The samples were left rotating overnight at 4° C. with the anti-Myc-beads (Santa Cruz). Samples were centrifuged at 4000 rpm, 4° C. for 5 min and washed four times in PBS. Proteins were eluted from beads following 5 min of boiling in sample buffer. Proteins were separate on 12.5% SDS-PAGE gel, followed by Western blot analysis.
Further understanding and evaluation of the relative contribution of ARTS to the formation of a complex with Bcl-2 and XIAP was obtained by over-expressing ARTS, Bcl-2, and XIAP alone or all together in COS-7 cells, which contain relatively small amounts of endogenous ARTS.
FIGS. 5A and 5B show results of COS-7 cells (pull down and lysates) transiently co-transfected with combinations of ARTS, flag-Bcl-2, and myc-XIAP constructs. Pull-down of XIAP was performed using anti-myc beads, and the precipitate was subjected to western blot analyses. […] This weak binding was attributed to the presence of low endogenous levels of ARTS in these COS-7 cells resulting in almost no formation of the complex.

XIAP [4] = target: T2, XIAP (Homo sapiens, UniProt P98170); test: Bimolecular Fluorescence Complementation (BiFC) with flow cytometry, ARTS and XIAP; format: binding; set-up: expressed in transfected cells; host or cells: HeLa; conditions: living cells, 30 minutes after apoptotic induction, data not shown
Excerpt: (§3) The Bimolecular Fluorescence Complementation (BiFC) assay, provides a simple and direct way to visualize protein-protein interactions in real-time and in living cells. The method is based on formation of a fluorescent complex through the association of two fragments of a fluorescent protein, brought together by an interaction between proteins fused to the fragments. This method is especially attractive because the Green fluorescent protein (GFP) or Yellow fluorescent protein (YFP) chromophore forms spontaneously on protein folding in virtually every cell type tested (Kerppola, 2006).
(§4) Direct binding between [ARTS and Bcl-2] and [XIAP and Bcl-2] was examined using the BiFC system. […]
(§5) Transfection was performed using 200 ng of each plasmid together with 50 ng of pdsRED plasmid which served as control for transfection efficiency. […] Flow cytometry analyses of cell suspensions were performed using a fluorescence-activated cell sorter (FACSCantoII; BD Biosciences) equipped with an argon laser emitting at 488 nm. […] Results were analyzed using […] software (BD Biosciences). A ratio between YFP fluorescence and Red fluorescence was calculated for each time point.
(§6) To further investigate the binding relationships within this complex, the split-Venus, Bimolecular Fluorescence Complementation (BiFC) system was used. […]

XIAP [5] = target: T2, XIAP; conditions: in vitro and in vivo; cited from earlier work
Bcl-2 and XIAP = test: Immunoprecipitation with anti-ARTS monoclonal antibody in HeLa, BT-549 and COS-7 cells; format: binding; conditions: BT-549 and 6-Myc-ARTS transfected COS-7 cells
Protocol: (§7) Co immunoprecipitation was performed as previously described (Gottfried et al., 2004). Briefly, 10 μg of anti-ARTS antibody or 2 μg of anti-Bcl-2 or anti-XIAP antibody were added to the protein lysate and the samples were left rotating overnight at 4° C. On the following day, agarose beads conjugated to protein A/G (Santa Cruz) were added for 4 h. Samples were centrifuged at 4000 rpm, 4° C. for 5 min and washed three times with PBS. Proteins were eluted from beads following 5 min of boiling in sample buffer and separated on 12.5% SDS-PAGE gel, followed by Western blot analysis.

Bcl-2 [6] = test: IP with anti ARTS antibody in HeLa wt cells, Bcl-2; format: binding, human
Protocol: as §7
(§8) Further, HeLa wt cells were treated with ABT-263 25 μM for 24 h. 750 μg of total proteins were subjected to Immunoprecipitation (IP) assay using monoclonal mouse anti ARTS Antibody (Ab). Western Blot analysis was performed using Bcl-2, Bcl-xL, ARTS and Actin antibodies. […] This binding is still seen after 24 hours of treatment with ABT-263. The decrease in binding may be the result of lower levels of Bcl-2 and Bcl-xL known to be strongly degraded after 24 hours of apoptosis.

Bcl-2 [7] = test: Functional-structural pull-down assay with anti Bcl2 antibody in transfected HeLa cells; format: binding, human; conditions: pull-down with Bcl-2 antibodies
Protocol: HeLa cells were transiently transfected with Full length ARTS plasmid and 128 amino acids N′ terminus deletion of ARTS plasmid, for 24 hrs. The cells were extracted using RIPA-SDS lysis buffer. Immunoprecipitation was done by incubation of lysates overnight with anti Bcl2 antibody (BD), followed by precipitation done with protein A/G beads (Santa Cruz). Western blot analysis was performed using monoclonal anti ARTS antibody directed against its unique C terminus (Sigma).
In order to identify the Bcl-2 binding domain in ARTS, the inventors examined whether deletion of different fragments of ARTS, namely, the N-terminal 128 amino-acid residues may have an effect. Therefore, pull-down experiments were performed in HeLa cells transfected with either the full length ARTS or a deletion mutant thereof.

Bcl-2 [8] = test: Bimolecular Fluorescence Complementation (BiFC) with flow cytometry, ARTS and Bcl-2; format: binding, human; conditions: living cells, 30 minutes after apoptotic induction, data not shown
Excerpt: as §3, §4, §5, §6

Bcl-2 [9] = test: Myc beads pull-down of ARTS and Bcl-2 in co-transfected COS-7 cells; format: binding; conditions: COS-7 cells co-transfected with Bcl-2 and ARTS
Protocol: as §2
The mechanism by which ARTS regulates Bcl-2 levels was further tested using a pull-down assay in COS-7 cells which were co-transfected with Bcl-2 and ARTS expression vectors. Pull-down assays were performed using agarose anti-myc beads followed by Western blot analysis using mouse anti-ARTS and anti-Bcl-2 antibodies.

Bcl-XL = Bcl-XL (Homo sapiens, UniProt Q07817); test: IP with anti ARTS antibody in HeLa wt cells, Bcl-xL; format: binding; set-up: endogenous in cells; host or cells: HeLa wt cells
Protocol: as §7, §8

Bcl-2 [10] = test: Over-expression of ARTS in COS-7 cells, Bcl-2 levels by Western blot and densitometry; format: cell-based; conditions: COS-7 cells, transient transfection
Excerpt: For transient transfections jetPEI™ (Polyplus Transfection) and Transfectol (GeneChoice) reagents were used according to the manufacturers' instructions.
To determine whether ARTS promotes apoptosis by regulating the levels of Bcl-2, the inventors first over-expressed ARTS in COS-7 cells. More specifically, COS-7 cell were transiently transfected with ARTS, Bcl-2 or empty vector or co-transfected with both constructs.

T2 sequence (P98170 whole entry, the tested form may be a part): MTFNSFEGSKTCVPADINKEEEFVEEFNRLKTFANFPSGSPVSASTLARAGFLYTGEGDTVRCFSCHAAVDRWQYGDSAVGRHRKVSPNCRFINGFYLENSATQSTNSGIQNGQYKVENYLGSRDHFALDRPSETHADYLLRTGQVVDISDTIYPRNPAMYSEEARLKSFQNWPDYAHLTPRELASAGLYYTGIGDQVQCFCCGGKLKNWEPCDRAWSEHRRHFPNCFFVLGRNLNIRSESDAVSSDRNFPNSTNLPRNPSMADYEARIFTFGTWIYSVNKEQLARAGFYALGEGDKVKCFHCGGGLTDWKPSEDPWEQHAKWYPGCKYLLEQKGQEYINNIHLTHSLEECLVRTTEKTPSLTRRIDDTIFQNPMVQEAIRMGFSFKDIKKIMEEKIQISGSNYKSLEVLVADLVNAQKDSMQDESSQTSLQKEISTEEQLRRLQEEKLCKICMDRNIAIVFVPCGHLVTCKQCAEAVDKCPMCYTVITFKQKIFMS
Chain of Bcl-XL (Q07817 whole entry): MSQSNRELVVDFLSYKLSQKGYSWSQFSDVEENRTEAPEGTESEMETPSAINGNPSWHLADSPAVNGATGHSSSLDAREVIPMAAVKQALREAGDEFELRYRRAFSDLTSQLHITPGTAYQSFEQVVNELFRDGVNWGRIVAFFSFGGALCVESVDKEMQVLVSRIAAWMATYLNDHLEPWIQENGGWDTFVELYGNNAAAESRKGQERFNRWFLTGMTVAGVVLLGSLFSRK
T1 sequence (P98170 whole entry): as the sequence (P98170 whole entry, the tested form may be a part) above
T1 sequence (P10415 whole entry): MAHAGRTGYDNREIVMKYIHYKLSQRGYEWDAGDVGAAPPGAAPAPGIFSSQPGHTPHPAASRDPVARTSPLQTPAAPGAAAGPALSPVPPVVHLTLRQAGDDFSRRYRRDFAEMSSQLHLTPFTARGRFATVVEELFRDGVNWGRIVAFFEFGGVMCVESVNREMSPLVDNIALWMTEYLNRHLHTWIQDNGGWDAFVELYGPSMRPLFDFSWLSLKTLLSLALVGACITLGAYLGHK

Row | Molecule | time at which Bcl-2 and ARTS are found in the cytosol after apoptosis induction (BT-549 and HeLa cells) | cells exhibiting Bcl-2 in the cytosol (HeLa cells; HeLa cells transfected with Bcl-2, 180 minutes of STS treatment) | cells exhibiting Bcl-2 in their cytosol (HeLa cells; HeLa cells transfected with Bcl-2, sixty minutes following STS treatment) | time at which poly-ubiquitinated forms of Bcl-2 are seen (Bcl-2 [1]; 1.5 μM STS) | poly-ubiquitinated forms of Bcl-2 after induction of apoptosis (Bcl-2 [1]; 1.5 μM STS 0.5 h) | Bcl-2 levels (Bcl-2 [2]; HeLa cells, 60 and 180 minutes treatments with STS) | Bcl-2 levels upon induction of apoptosis (Bcl-2 [2]; different cell lines and mouse embryonic fibroblasts (MEFs), Western blot) | polyubiquitinated forms of Bcl-2 following apoptotic induction (Bcl-2 [3]) | time of appearance of Bcl-2 polyubiquitinated forms (Bcl-2 [3]) | ability of XIAP to bind to Bcl-2 on over-expression of ARTS (XIAP and Bcl-2) | binding to XIAP (BiFC fluorescence) (XIAP [4]) | binding to XIAP (XIAP [5]) | complex of ARTS, Bcl-2 and XIAP (Bcl-2 and XIAP) | binding to Bcl-2 in living cells (Bcl-2 [6]) | binding to Bcl-2 (Bcl-2 [7]) | binding to Bcl-2 (BiFC fluorescence) (Bcl-2 [8]) | complex with Bcl-2 (Bcl-2 [9]) | binding to Bcl-xL in living cells (Bcl-XL) | Bcl-2 levels on over expression (Bcl-2 [10])
1 | CN[C@@H]1C[C@H]2O[C@@](C)([C@@H]1OC)n1c3ccccc3c3c4c(c5c6ccccc6n2c5c31)C(=O)NC4 [STS, staurosporine] | 2 to 15 min | 94% | 63% | ≤ 30 min | significant accumulation of poly-ubiquitinated forms of Bcl-2 | decrease in Bcl-2 levels | down regulated | accumulation of polyubiquitinated forms of Bcl-2; also recorded: accumulation of poly-ubiquitinated forms of Bcl-2; also recorded: poly-ubiquitinated forms of Bcl-2 detected | ≤ 30 min | – | – | – | – | – | – | – | – | – | –
2 | B1 | – | – | – | – | – | – | – | – | – | significantly increased | Strong binding | binds directly to XIAP | form a complex | binds | binds to Bcl-2 | Strong binding | forms a complex with Bcl-2 | binds | reduction in Bcl-2 levels
